This is an account of results in article doi:10.1101/2020.12.22.423932.

A word on the Kd: it is the equilibrium constant for the complex coming apart. Read a low Kd as higher affinity.

For this experiment, the target named is human RPN2, wild type, full length (human) (UniProt Q99460). As to the kind of experiment: MST.
human RPN2, wild type, full length (human), sequence (Q99460 whole entry): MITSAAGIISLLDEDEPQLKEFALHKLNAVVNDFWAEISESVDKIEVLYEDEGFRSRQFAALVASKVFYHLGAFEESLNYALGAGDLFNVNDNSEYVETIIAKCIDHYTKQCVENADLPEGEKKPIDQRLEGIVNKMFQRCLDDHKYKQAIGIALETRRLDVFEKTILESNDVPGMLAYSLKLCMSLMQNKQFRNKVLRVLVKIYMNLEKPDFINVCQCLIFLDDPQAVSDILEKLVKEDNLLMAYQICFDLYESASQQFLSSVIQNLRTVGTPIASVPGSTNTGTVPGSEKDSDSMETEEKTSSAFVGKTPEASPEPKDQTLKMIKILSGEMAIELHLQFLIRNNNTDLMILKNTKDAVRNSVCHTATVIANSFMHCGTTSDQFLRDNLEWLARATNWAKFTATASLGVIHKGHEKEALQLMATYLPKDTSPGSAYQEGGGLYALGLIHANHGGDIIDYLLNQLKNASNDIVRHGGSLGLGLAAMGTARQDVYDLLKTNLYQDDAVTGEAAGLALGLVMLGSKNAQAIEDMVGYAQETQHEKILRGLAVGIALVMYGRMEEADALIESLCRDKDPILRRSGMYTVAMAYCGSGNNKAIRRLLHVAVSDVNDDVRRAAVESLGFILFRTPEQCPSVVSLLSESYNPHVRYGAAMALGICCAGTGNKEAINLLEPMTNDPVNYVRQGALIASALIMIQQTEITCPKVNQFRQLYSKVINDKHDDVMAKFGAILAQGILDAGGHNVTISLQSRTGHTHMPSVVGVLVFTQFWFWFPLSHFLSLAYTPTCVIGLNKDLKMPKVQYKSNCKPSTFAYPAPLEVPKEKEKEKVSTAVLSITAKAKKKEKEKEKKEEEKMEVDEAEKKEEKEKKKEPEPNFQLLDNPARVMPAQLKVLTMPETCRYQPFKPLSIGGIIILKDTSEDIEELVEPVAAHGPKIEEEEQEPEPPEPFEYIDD

In the case of “mono-ubiquitin (from UniProt P0CG48 1-76) (natural protein; other documents disagree on this pair)”, the Kd was 2120 µM.
